Reference: paper PMC9227038, “Characterization of Four Medically Important Toxins from Centruroides huichol Scorpion Venom and Its Neutralization by a Single Recombinant Antibody Fragment” (Toxins, 2022)

Experiments:
Assay in all cases: SPR
Conditions in all cases: both partners purified
Chui2 toxin [1] = molecular target: T1, Chui2 toxin (Centruroides huichol, UniProt C0HM15)
T1 construct: also called FII.9-2

Chui3 toxin [2] = molecular target: T2, Chui3 toxin (Centruroides huichol, UniProt C0HM16)
T2 construct: also called Chui3/Cn3; FII.9-3
T2 sequence (C0HM16 whole entry): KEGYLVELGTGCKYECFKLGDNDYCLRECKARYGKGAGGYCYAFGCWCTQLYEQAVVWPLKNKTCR

Chui4 toxin [3] = molecular target: T3, Chui4 toxin (Centruroides huichol, UniProt C0HM17)
T3 construct: also called FII.10-1
T3 sequence (C0HM17 whole entry): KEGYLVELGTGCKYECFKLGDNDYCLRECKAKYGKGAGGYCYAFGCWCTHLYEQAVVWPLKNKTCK

Chui5 toxin [4] = molecular target: T4, Chui5 toxin (Centruroides huichol, UniProt C0HM18)
T4 construct: also called FII.12-1
T4 sequence (C0HM18 whole entry): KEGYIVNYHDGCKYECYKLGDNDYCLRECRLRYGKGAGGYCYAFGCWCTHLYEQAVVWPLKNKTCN

Chui2 toxin [5] = molecular target: T1, Chui2 toxin; remark: listed apart in the source
Chui3 toxin [6] = molecular target: T2, Chui3 toxin; remark: listed apart in the source
Chui4 toxin [7] = molecular target: T3, Chui4 toxin; remark: listed apart in the source
Chui5 toxin [8] = molecular target: T4, Chui5 toxin; remark: listed apart in the source
Chui5 toxin [9] = molecular target: T4, Chui5 toxin; remark: listed apart in the source
Chui5 toxin [10] = molecular target: T4, Chui5 toxin; remark: listed apart in the source

T1 sequence (C0HM15 whole entry): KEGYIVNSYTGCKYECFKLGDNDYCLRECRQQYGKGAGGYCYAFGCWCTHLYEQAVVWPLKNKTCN

| Binder | Kd (Chui2 toxin [5]) | TR (residence time) (Chui2 toxin [5]) | koff (Chui2 toxin [5]) | kon (Chui2 toxin [5]) | Kd (Chui3 toxin [6]) | TR (residence time) (Chui3 toxin [6]) | koff (Chui3 toxin [6]) | kon (Chui3 toxin [6]) | Kd (Chui4 toxin [7]) | TR (residence time) (Chui4 toxin [7]) | koff (Chui4 toxin [7]) | kon (Chui4 toxin [7]) | Kd (Chui5 toxin [8]) | koff (Chui5 toxin [8]) | kon (Chui5 toxin [8]) | dH (Chui5 toxin [9]) | further results |
| --- | --- | --- | --- | --- | --- | --- | --- | --- | --- | --- | --- | --- | --- | --- | --- | --- | --- |
| scFv LR (scFv, V domains shown) VH: EVQLVESGGGLVQPGGSLRLSCTGSGFTFDNYAMHWLRQVPGEGLEWVSGISRSSGDIDYADSVKGRFTISRDDAKKTLSLQMNSLRAEDTAVYYCARGGFGSFDTWGQGTMVTVSS VL: EIVLTQSPATLSVSPGERATLSCRASQSVRSYLAWYQQKPGQAPRLLFSDASNRATGIPARFTGSGSGTDFTLTISSLEPEDFAIYYCQQYRYSPRTFGQGTKVEIK |  |  |  |  |  |  |  |  |  |  |  |  |  |  |  |  | binding result (Chui2 toxin [1]): binds; binding result (Chui3 toxin [2]): binds; binding result (Chui4 toxin [3]): binds; binding result (Chui5 toxin [4]): no binding (tested: 25 nM) |
| scFv 10FG2 (scFv, V domains shown, source: E. coli TG1 (pSyn1), purified (Ni2+-NTA, Superdex 75 SEC)) VH: QVNLRESGGGLVQPGGSLRLSCAASGFSFGSYGMHWVRQAPGKGLEWVAVISYGGGSKYYADSVKGRFTISRDNSKNTLYLQMNSLRAEDTAVYYCAKDARDCLLCSDWTFDLWGRGTLVTVSS VL: NFMLTQPHSASGTPGQRVTISCSGSSSNIGSNTVNWYRHLPGSAPELLIGSHNQRPSGVPDRFSGSKSGTSASLAISGLQSEDEADYYCAAWDDSTLGYVFGTGTKLTVL | 1.1 nM | 60.4 min | 0.00028 s⁻¹ | 280000 M⁻¹ s⁻¹ | 1.8 nM | 53.1 min | 0.00031 s⁻¹ | 180000 M⁻¹ s⁻¹ | 0.3 nM | 242 min | 7e-05 s⁻¹ | 210000 M⁻¹ s⁻¹ |  |  |  |  |  |
| scFv B15a (scFv, V domains shown, also called B15a variant; source: E. coli TG1 (pSyn1), purified (Ni2+-NTA, Superdex 75 SEC)) VH: QVNLRESGGGLVQPGGSLRLSCAASGFSFGSYGMHWVRQAPGKGLEWVAVISYGGGSKYYADSVQGRFTISRDNSKNTLYLQMNSLRAEDTAVYYCAKDARDCLQCSDWTFDLWGRGTLVTVSS VL: NFMLTQPHSASGTPGQRVTISCSGSSSNIGSNTVNWYRHLPGSAPELLIGSHNQRPSGVPDRFSGSKSGTSASLAISGLQSEDEADYYCAAWDDSTLGYVFGTGTKLTVL |  |  |  |  |  |  |  |  |  |  |  |  | 7.3 nM | 0.00097 s⁻¹ | 130000 M⁻¹ s⁻¹ | -2.6 kcal/mol |  |
| scFv HV (scFv, V domains shown, also called HV variant) VH: QVNLRESGGGLVQPGGSLRLSCAASGFSYGSYGMHWVRQAPGKGLEWVAVISYGGGSKYYADSVQGRFTISRDNSKNTLYLQMNSLRAEDTAVYYCAKDARDCLGCSDWTFDLWGRGTLVTVSS VL: NFMLTQPHSASGTPEQRVTISCSGSSSNIGSNTVNWYRHLPGSAPELLIGSHNQRPSGVPDRFSGSKSGTSASLAISGLQSEDEADYYCAAWDDSTLGYVFGTGTKLTVL | 3.1 nM | 34.2 min | 0.00049 s⁻¹ | 160000 M⁻¹ s⁻¹ | 3.8 nM | 48.8 min | 0.00034 s⁻¹ | 90000 M⁻¹ s⁻¹ | 0.9 nM | 105 min | 0.00016 s⁻¹ | 180000 M⁻¹ s⁻¹ |  |  |  | -1.6 kcal/mol | Kd (Chui5 toxin [10]): 6.9 nM; TR (residence time) (Chui5 toxin [10]): 15.5 min; koff (Chui5 toxin [10]): 0.00108 s⁻¹; kon (Chui5 toxin [10]): 160000 M⁻¹ s⁻¹ |
| scFv 9a (scFv, V domains shown, also called variant 9a; clone 9a) VH: QVNLRESGGGLVQPGGSLRLSCAASGFSFGSYGMHWVRQAPGKGLEWVAVISYGGGSKYYADSVKGRFTISRDNSKNTLYLQMNSLRAEDTAVYYCAKDARDCLQCSDWTFDLWGRGTLVTVSS VL: NFMLTQPHSASGTPGQRVTISCSGSSSNIGSNTVNWYRHLPGSAPELLIGSHNQRPSGVPDRFSGSKSGTSASLAISGLQSEDEADYYCAAWDDSTLGYVFGTGTKLTVL |  |  |  |  |  |  |  |  |  |  |  |  | 8.2 nM | 0.00119 s⁻¹ | 150000 M⁻¹ s⁻¹ |  |  |
